In US20230399388A1 (Sanofi, published 2023):
Substitutions are numbered along the chain they refer to. Like-named read-outs stand apart in the source and are kept apart here. Primed or numbered codes have the meaning given here. Ends that are not written are not given here. Biotin′ = not defined here

T1: desArg10kallidin like peptide (mouse)
T1 peptide: RRPPGFSPF

T2: kallidin
T2 peptide: KRPPGFSPFR

T3: KRPPGFSPFR-biotin
T3 construct: also called KD-b; KD-biotin
T3 peptide: KRPPGFSPFR-biotin

T4: RRPPGFSPFR-biotin (mouse)
T4 construct: also called KLP-b; KLP-biotin
T4 peptide: RRPPGFSPFR-biotin

T5: RRPPGFSPF-biotin (mouse)
T5 construct: also called DAKLP-b; DAKLP-biotin
T5 peptide: RRPPGFSPF-{Biotin′}

B1: C63 (antibody, V domains shown)
VH: EVKLEESGGGLVQPGGSMKLSCVASGFTFSNYWMNWVRQSPEKGLEWVAEIRSKSNNYATHYAESVKGRFTISRDDSKSSVYLQMNNLRAEDTGIYYCIGEDYGGDYWGQGTSVTVSS
VL: DIVMSQSPSSLAVSVGEKVTMSCKSSQSLLYSSDQRNYLAWYQQRSGQSPKLLIYWASTRESGVPDRFTGSGSGTDFTLTISSVKAEDLAVYYCQQYYSYPYTFGGGTKLEIK
notes: Murine hybridoma antibody; Family 2
B2: humanized F151 variant HC2a/LC2a (antibody, human IgG1, V domains shown)
VH: QIQLVQSGAEVKKPGASVKVSCKASGYSFTDYNIYWVKQSPGKGLEWIGYFDPYNGNTGYNQKFRGKATLTVDKSSSTAYMHLSSLTSEESAVYYCANYYRYDDHAMDYWGQGTSVTVSS
VL: DIVMTQSPSSLSASVGDRVTISCKSSQSLLYSSNQKNYLAWYQQKPGKSPKPLIYWASTRESGVPDRFSGSGSGTDFTLTISSVQAEDLATYYCQQYYSYPWTFGGGTKLEIK
notes: also called LC2axHC2a
B3: humanized F151 variant HC1/LC1 (antibody, V domains shown)
VH: B2 VH with Q1E, A9P, G44S, Y80F, E90D
VL: B2 VL with T5S, S12A, I21M, S69T, T91I
notes: also called LC1xHC1
B4: humanized F151 variant HC2b/LC2a (antibody, human IgG1, V domains shown)
VH: B2 VH with Q62E
VL: B2 VL
notes: also called LC2axHC2b
B5: humanized F151 variant HC2c/LC2b (antibody, human IgG1, V domains shown)
VH: B2 VH with L86K
VL: B2 VL with L89K
notes: also called LC2bxHC2c
B6: I22 (antibody, V domains shown)
VH: EVQLQQSGAELVRSGASVKLSCTASGFNIKDYYMHWVKQRPEQGLEWIGWVDPENGDSDYAPKFQGKATMTADTSSNTVYLQFSSLTSEDTAVYYCNAFEYDGNYSPLDFWGQGTSVTVSS
VL: DIVMTQSPSSLSVSAGEKVTMSCKSSQSLLNSGNQKNYLAWYQQKPGQPPKLLIYGASTRESGVPDRFTGSGSGTDFTLTISSVQAEDLAVYYCQNDHSYPLTFGAGTKLELK
notes: Murine hybridoma antibody; Family 1
B7: I54 (antibody, V domains shown)
VH: B6 VH
VL: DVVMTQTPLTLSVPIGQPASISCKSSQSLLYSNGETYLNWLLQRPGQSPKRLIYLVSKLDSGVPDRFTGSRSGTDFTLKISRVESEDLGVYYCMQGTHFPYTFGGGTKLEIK
notes: Murine hybridoma antibody; Family 1; also called 154
B8: humanized F151 variant HC3a/LC3a (antibody, human IgG1, V domains shown)
VH: QIQLVQSGAEVKKPGASVKVSCKASGYSFTDYNIYWVRQAPGQGLEWIGYFDPYNGNTGYNQKFRGRATLTVDKSTSTAYMELRSLRSDDTAVYYCANYYRYDDHAMDYWGQGTLVTVSS
VL: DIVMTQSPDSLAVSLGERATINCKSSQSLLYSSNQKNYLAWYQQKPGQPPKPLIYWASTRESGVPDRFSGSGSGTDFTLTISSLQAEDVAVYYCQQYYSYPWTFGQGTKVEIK
notes: also called hF151
B9: humanized F151 variant HC3b/LC3b (antibody, human IgG1, V domains shown)
VH: B8 VH with I2V, I48M, A68V, L70M, V72T, K74T
VL: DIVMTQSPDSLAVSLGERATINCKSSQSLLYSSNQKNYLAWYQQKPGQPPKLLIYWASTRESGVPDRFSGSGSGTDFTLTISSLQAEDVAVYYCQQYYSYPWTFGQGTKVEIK
notes: also called LC3bxHC3b

Experiments:
desArg10kallidin [1] = assay: cell-based or functional assay
[2] = target: T1, desArg10kallidin like peptide; assay: cell-based or functional assay
kallidin [3] = target: T2, kallidin; assay: cell-based or functional assay
KRPPGFSPFR-biotin [4] = target: T3, KRPPGFSPFR-biotin; assay: Biacore, biotin-peptide on SA chip;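 as to kon: purified antibodies injected as twofold dilutions from 0.1 to 10 nM in HBS-EP over streptavidin-captured biotinylated BKR1 or BKR2 ligand peptides, with a random-peptide flow cell as reference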
…-biotin [5] = target: T6, …-biotin (C-terminal biotin); assay: Biacore, biotin-peptide on SA chip;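 as to kon: purified antibodies injected as twofold dilutions from 0.1 to 10 nM in HBS-EP over streptavidin-captured biotinylated BKR1 or BKR2 ligand peptides, with a random-peptide flow cell as reference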
T6 construct: also called DAKD-b; DAKD-biotin

KRPPGFSPFR-biotin [6] = target: T3, KRPPGFSPFR-biotin; assay: Biacore, biotin-peptide on SA chip;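 as to kon: purified antibodies injected as twofold dilutions from 0.1 to 10 nM in HBS-EP over streptavidin-captured biotinylated BKR1 or BKR2 ligand peptides, with a random-peptide flow cell as reference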
Excerpt: (§1) For antibody binding kinetics, the instruments used were the BIACORE 2000 or BIACORE 3000 (GE Healthcare), designed for biomolecular interaction analysis (BIA) in real time. The sensor chip used was SA chip (GE Healthcare) with streptavidin covalently immobilized on a carboxymethylated dextran matrix. Each sensor chip has four parallel flow cells (Fc). Every biotinylated BKR1 or BKR2 ligand peptides were immobilized to one of the flow cells 2 to 4 (Fc2 to Fc4) in the SA chip for binding dissociation rate screening and selectivity screening. Flow cell 1 (Fc1) was reserved and immobilized with a random peptide (biotinylated at one terminus) with equal or close peptide length in comparison to the testing ligand peptides as the negative control. In screening assays, cell culture supernatants of the hybridoma clones selected through primary screening of transiently expressed humanized variants were injected over immobilized peptides. Hybridoma cell culture media was also injected over the chip surface as blank to establish a baseline. After subtracting signals of Fc1 and blank buffer runs, the dissociation rate of the antibodies from the supernatants to each peptide was analyzed and ranked using BIAevaluation software. […] In kinetics analysis, the corresponding biotin-peptides identified in screening for the testing antibody were immobilized in Fc2 to Fc4 while Fc1 with a random peptide used as reference cell. Each purified antibody selected from screenings were made into a series of two fold dilutions in running buffer (1×HBS-EP buffer, GE Healthcare) between 0.1 to 10 nM. Binding association rate, dissociation rate and the overall affinity were calculated in BIAevaluation.

…-biotin [7] = target: T6, …-biotin; assay: Biacore, biotin-peptide on SA chip; remark: listed apart in the source;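 as to kon: purified antibodies injected as twofold dilutions from 0.1 to 10 nM in HBS-EP over streptavidin-captured biotinylated BKR1 or BKR2 ligand peptides, with a random-peptide flow cell as reference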
Excerpt: as §1

RRPPGFSPFR-biotin [8] = target: T4, RRPPGFSPFR-biotin; assay: Biacore, biotin-peptide on SA chip
Excerpt: as §1

RRPPGFSPF-biotin [9] = target: T5, RRPPGFSPF-biotin; assay: Biacore, biotin-peptide on SA chip
Excerpt: as §1

[10] = target: T7, biotin-… (N-terminal biotin); assay: ELISA, biotin-peptide on streptavidin plate
T7 construct: also called b-BK

…-biotin [11] = target: T8, …-biotin (C-terminal biotin); assay: ELISA, biotin-peptide on streptavidin plate
T8 construct: also called BK-b

KRPPGFSPFR-biotin [12] = target: T3, KRPPGFSPFR-biotin; assay: Biacore, biotin-peptide on SA chip
Excerpt: as §1

…-biotin [13] = target: T6, …-biotin; assay: Biacore, biotin-peptide on SA chip; remark: listed apart in the source
Excerpt: as §1

RRPPGFSPFR-biotin [14] = target: T4, RRPPGFSPFR-biotin; assay: Biacore, biotin-peptide on SA chip
Excerpt: as §1

RRPPGFSPF-biotin [15] = target: T5, RRPPGFSPF-biotin; assay: Biacore, biotin-peptide on SA chip
Excerpt: as §1

kallidin [16] = target: T2, kallidin; assay: cell-based or functional assay
desArg10kallidin [17] = assay: cell-based or functional assay; remark: listed apart in the source
biotin-RPPGFSPF = target: T9, biotin-RPPGFSPF (N-terminal biotin); assay: ELISA, biotin-peptide on streptavidin plate
T9 construct: also called b-DABK; biotin-DABK

RPPGFSPF-biotin = target: T10, RPPGFSPF-biotin (C-terminal biotin); assay: ELISA, biotin-peptide on streptavidin plate
T10 construct: also called DABK-b

Row | Binder | Mean Molar Ratio, ligand depletion, calcium mobilization in HEK mBKR1 cells (desArg10kallidin [1]) [molar ratio] | Mean Molar Ratio, ligand depletion, calcium mobilization in HEK mBKR1 cells [2] [molar ratio] | Mean Molar Ratio, ligand depletion, calcium mobilization in MRC5 cells (kallidin [3]) [molar ratio] | Kd (KRPPGFSPFR-biotin [6]) [nM] | koff (KRPPGFSPFR-biotin [6]) [s⁻¹] | Kd (…-biotin [7]) [nM] | koff (…-biotin [7]) [s⁻¹] | Kd (KRPPGFSPFR-biotin [12]) [nM] | koff (KRPPGFSPFR-biotin [12]) [s⁻¹] | kon (KRPPGFSPFR-biotin [12]) [M⁻¹ s⁻¹] | Kd (…-biotin [13]) [nM] | koff (…-biotin [13]) [s⁻¹] | kon (…-biotin [13]) [M⁻¹ s⁻¹] | Kd (RRPPGFSPFR-biotin [14]) [nM] | koff (RRPPGFSPFR-biotin [14]) [s⁻¹] | kon (RRPPGFSPFR-biotin [14]) [M⁻¹ s⁻¹] | Kd (RRPPGFSPF-biotin [15]) [nM] | koff (RRPPGFSPF-biotin [15]) [s⁻¹] | kon (RRPPGFSPF-biotin [15]) [M⁻¹ s⁻¹] | other results
1 | B1 | 0.08 | 5.85 | 0.23 | 0.221 | 0.0001 | 0.142 | 9.36e-05 | – | – | – | – | – | – | – | – | – | – | – | – | Kd (KRPPGFSPFR-biotin [4]): 0.221 nM; Kd (…-biotin [5]): 0.142 nM; binding result (RRPPGFSPFR-biotin [8]): no binding; binding result (RRPPGFSPF-biotin [9]): no binding; binding result [10]: no binding; binding result (…-biotin [11]): no binding
2 | B2 | – | – | – | – | – | – | – | 0.00871 | 6.12e-06 | 703000 | 0.0183 | 1.22e-05 | 666000 | 0.0434 | 2.68e-05 | 615000 | 0.0138 | 5.67e-06 | 410000 | –
3 | B3 | – | – | – | – | – | – | – | 0.000394 | 1.74e-07 | 424000 | 0.0145 | 6e-06 | 416000 | 0.00554 | 2.67e-06 | 481000 | 0.016 | 7.96e-06 | 500000 | –
4 | B4 | – | – | – | – | – | – | – | 0.00472 | 1.66e-06 | 375000 | 0.0257 | 1.05e-05 | 417000 | 0.00576 | 2.2e-06 | 401000 | 0.0297 | 1.3e-05 | 446000 | –
5 | B5 | – | – | – | – | – | – | – | 0.0174 | 9.08e-06 | 564000 | 0.0901 | 4.34e-05 | 481000 | 0.0198 | 1.02e-05 | 516000 | 0.0121 | 1.1e-05 | 903000 | –
6 | B6 | 0.07 | 0.21 | 0.22 | 0.0044 | 2.1e-05 | 0.217 | 0.000319 | – | – | – | – | – | – | – | – | – | – | – | – | FLIPR (nM), KD (15 nM) (kallidin [16]): 25 nM; FLIPR (nM), DAKD (50 nM) (desArg10kallidin [17]): 9.4 nM; Kd (RRPPGFSPFR-biotin [8]): 0.00182 nM; koff (RRPPGFSPFR-biotin [8]): 1.03e-05 s⁻¹; Kd (RRPPGFSPF-biotin [9]): ≤ 0.00183 nM; koff (RRPPGFSPF-biotin [9]): ≤ 1e-06 s⁻¹
7 | B7 | 0.15 | 0.35 | 0.3 | 0.0112 | 3.88e-05 | 0.00953 | 3.06e-05 | – | – | – | – | – | – | – | – | – | – | – | – | FLIPR (nM), KD (15 nM) (kallidin [16]): 30 nM; FLIPR (nM), DAKD (50 nM) (desArg10kallidin [17]): 8.1 nM; Kd (RRPPGFSPFR-biotin [8]): 0.00956 nM; koff (RRPPGFSPFR-biotin [8]): 6.04e-05 s⁻¹; Kd (RRPPGFSPF-biotin [9]): 0.0117 nM; koff (RRPPGFSPF-biotin [9]): 5.66e-05 s⁻¹; binding result (biotin-RPPGFSPF): binds; binding result (RPPGFSPF-biotin): binds
8 | B8 | – | – | – | – | – | – | – | 0.00678 | 2.95e-06 | 427000 | 0.0253 | 1.28e-05 | 506000 | 0.00106 | 5.43e-07 | 502000 | 0.0305 | 1.42e-05 | 465000 | –
9 | B9 | – | – | – | – | – | – | – | 0.0144 | 3.02e-06 | 251000 | 0.135 | 5.15e-05 | 385000 | 0.526 | 0.000272 | 539000 | 40.5 | 0.00276 | 70400 | –
